According to the nanobody polyreactivity screen of Harvey et al. (2022):

Assay: yeast display, Sf9 membrane polyspecificity reagent, FACS + sequencing; frameworks hold sequencing errors
How it was run: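 Nanobodies came from a synthetic yeast display library in Saccharomyces cerevisiae BJ5465, induced with galactose for 36–48 hours and stained for 1 hour at 4 °C with 10% biotinylated, detergent-solubilized Sf9 membrane reagent. Cells were enriched on streptavidin microbeads and then FACS-sorted, with low and high (top ~1%) gates set on anti-HA fluorescence for expression and streptavidin fluorescence for reagent binding. Each polyreactivity label reflects the gate a clone came from. Genes were amplified by colony PCR, sequenced by MiSeq 2 × 250 and filtered by CDR length.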

| Sequence | polyreactivity (PSR sort gate) |
| --- | --- |
| QVQLVESGGGLVQAGGSLRLSCAASGRTFRYYTMGWYRQAPGKEREFVAAISSTGGTYYADSVKGRFTISRDNAKNTVYLQMNSLKPEDTAVYYCNATTSSNEYDSWGQGTQVTVSS | low polyreactivity |
| QVQLVESGGGLVQAGGSLRLSCAASGSTFATYAMGWYRQAPGKERELVAVITRGGRTYYADSVKGRFTISRDNAKNTVYLQMNSLKPEDTAVYYCAAKAYTYYARIGFDYWGQGTQVTVSS | high polyreactivity |
| QVQLVESGGGLVQAGGSLRLSCAASGSTFGWYAMGWYRQAPGKERELVASITWDGGRTYYADSVKGRFTISRDNAKNTVYLLMNSLKPEDTAVYYCAARGVSSPLNYWGQGTQVTVSS | low polyreactivity |
| QVQLVESGGGLVQAGGSLRLSCAASGGTFQYYTMGWYRQAPGKERELVAGISSGGSTYYPDSVKGRFTISRDNAMNTVYLQMNRLKPEVTAVYYCNAVSRRKTYGYRIIKYDYWGQGTQVTVSS | high polyreactivity |
| QVQLVESGGGLVQAGGSLRLSCAASGLTFSVYAMGWYRQAPGKERELVAAISYSGDSTYADSVKGRFTISRDNAKNTVYLQMNSLKPEDTAVYYCNARWVRQGYRRWYDYWGQGTQVTVSS | low polyreactivity |
| QVQLVESCGGLVQAGGSLRLSCAASGSTFLVNAMGWYRPAPGKERELVAASSRGGGSTYYADSVKGRFTISRDKAKNTVYLQMNSLKPEDTAVYYCNARKWTIYGAHYYWGQGTQVTVSS | high polyreactivity |
| QVQLVESGGGLVQAGGSIRLSCAASGITFYKYAMGWYRQAPGKERELVAAISGNGGSTYYADSVKGRFTISRDYAKNTVYLQMNSLKPEDTAVYFCNRGYRRTDNYWGQGTQVTVSS | high polyreactivity |
| QVQLVESGGGLVQAGGSLRLSCAASGITFGYYAMGWYRQAPGKEREMVAAISFTGASTYYADSVKGRFTISRDNAKNTVYLQMNSLKPEDTAVYYCAADPYVPYQDFLSGFDYWGQGTQVTVSS | low polyreactivity |
| QVQLVESGGGLVQAGGSLRLSCAASGSIFVSYAMGWYRQAPGKERELVAAITVSGGSTYYADSVKGRFTISRDNAKNTVYLQMNSLKPEDTAVYYCAADSWDDWVVEFYYWGQGTQVTVSS | low polyreactivity |
| QDQLVESGGGLVQAGGSLRLICAASGRTFGSYTMGWYRQAPGKERELVAAITSGGRTNYADSVKGRFTISRDNAKNTVYLQMNSLKPEDTAVYYCAAGWRGGRYRYFAYDYWGQGTQVTVSS | high polyreactivity |
| QVQLVESGGGLVQAGGSLRLRCAASGFNFSFDNAMGWYRQAPGKERELVAAISSGTTTHYADSVKGRFTISRDNAKNTVYLQMNSLKPEDTAVYYCAADTAQQSGYEYDYWGQGTQVTVSS | low polyreactivity |
| QVQLVESGGGLVQAGGSLRLSCAASGRIFKYYVMGWYRQAPGKEREFVAAISGRGGRTYYADSVKGRFTISRDNAKNTVYLQMNSLKPEDTAVYYCATERQERGPLGYNYWGLGTQVTVSS | high polyreactivity |
| QVQLVESGGGLVQAGGSLRLSCAASGSTFYYYAMGWYRQAPGKVRELVATISWSGDSTYADSVKGRFTISRDNAKNTVYLQMNSLKPEDTAVYYCATSGDWWGFRYVYWGQGTQVTVSS | low polyreactivity |
| QVQLVESGGGLVQAGGSLRLSCAASGRIFGYYGMGWYRQAPGNERELVAAITYRGGSTYYADSVKGRFTISRDNAKNTVYLQMNSLKPEDTVVYYCGADGYSNYRYLYDYWGQGTQVTVSS | low polyreactivity |
| QVQLVESGGGLVQAGGSLRLSCAASGSIFSSYAMGWYRQAPGKERELVAAISQNGGSTDYADSVKGRFTISRDKAKNTVYLQMNSLKPEDTAVYYCNAYSVYVRGEYWGQGTQVTVSS | high polyreactivity |
| QVQLVESGGGLVQAGGSLRLSCAASGFIFRYYAMGWYRQAPGKERELVAAISWSGGSTYYADSVKGRFTISRDNAKNTVYLQMNSLKPEDTAVYYCNAVTTYGEYDYWGQGTQVTVSS | high polyreactivity |
| QVQLVESGGGLVQAGGSLRLSCAASGFTFPRNVMGWYRQAPGKERELVATISSGGRTNYADSVKGRFTISRDNAKNTVYLQMNSLKPEDTAVYYCAARVYTYYYDLHKRYYWGQGTQVTVSS | high polyreactivity |
| QVQLVDSGGGLVQAGGSLRLTCAASGTFYYYAMGWNRQAPGKERELVAAISYSGGRTYYADSVKGRFTISRDNAKNTVYLQMNSLKPEDTAFYYCNTDARSKKYIFDFDYWGQGTQVTLSS | high polyreactivity |
| QVQIVESGGGLVQAGGSLRLSCAASGRIFQPYAMGWYRQATGKERELVAAITRRAGSTYYADSVKGRFTISRDNANNTVYVQMNSLKPEDTAVYYCAARGLYWAYEMEYWGQGTQVTVSS | low polyreactivity |
| QVQLVESGGGLDQAGGSLRLSCAASGRTFAVYAMGWYIQAPGKERELVASIRLSGTRTYYADSVKGRFTISRDHAKNTVYFQMNSLKPEDTAVYYCAAKGTYSRGTFNGYRYDYWGQGTQVTVSS | high polyreactivity |
| QVQLVESGGGLVQAGGSLRLSCAASGRIFGGNAMGWYRQAPGKERELVAAISKRGGSTYYADSVKWRFTISRDNAKNTVYLQMNILKPEDTAVYYCAATAYADQGLDYGYWGQGTQVTVSS | high polyreactivity |

| Sequence | polyreactivity (PSR sort gate) |
| --- | --- |
| QVQLVESVGGLVQAGGCLRITCAASGSTSDANAMGWYRTATGKERELVAAITTGGSTNYADSVKGRFTISRDNAKNTVFLQMNSLKPEDTAVFYCAVDLLRMTGDRGHDYWGQGTQVTVSS | low polyreactivity |
| QVQLVESGGGLVPAGGSLRLSSAASGRIFVRNAMGWYRQAPGKERELVAAITRTGASTYYADSVKGRFTISRDNEKNTVYLQMNSLKPEDTAVYFFAAVWGWPYWVYRYDYWGQGTQVTVSS | high polyreactivity |
| QVQLVESGGGLVQAGGSLRLSCAASGRTFFKYVMGWSRQAPGKERELVAAITWNGGRTNYADSVKGRFTISRDYAKNTVYLQMNSLKPEDTAVYYCAAVTSVNPSVFNGNYWGQGTQVTVSS | low polyreactivity |
| QVQLVESAGGLLQTGGSLRLSCAASGRTLWYNAMGWYRQAPGKERELVAAISSGGSTNYADSVKGRFTISRDNAKHTVYLQMNSLKPEDTAVYYCAAWLAYSSRYGYWGQGTQVTVSS | low polyreactivity |
| QVQLVESGGGLVQAGGSLRLSCAASGRIFGNYAMGWYIQAPGKERELVAAISSGGNTNYADSVKGRFTISRDNAKNTVYLQMNSLKPEDTAVYYCAAYHFSFGWIRVDYWGQGTQVTVSS | high polyreactivity |
| QVQLVESGGGLVQAGGSLRLSCAASGSTFLYYAMGWYRQAPGKEREFVAAISISGGSTYYADSVKGRFTISRDNAKNTVYLQMNSLKPEDTAVYYCAARKKEYKPGNYWGQGTQVTVSS | low polyreactivity |
| QVQLVESGGGLVQAGGSLRLSCAASGITLGYYAMGWYRQAPGKERELVAAITWSGTSTYYADSVKGRFTISRDNAKNTVYLQMNSLKPEDTAVYYCAAGFISQYQERGYWGQGTQVTVSS | low polyreactivity |
| QVQLVESGGGLVQAGGSLRLSCAASGSTFGGYAKGWYRQAPGKERELVAAMSQSGTRTYYADSVKGRFTISRDKAKNTVYLQMNSLKPEDTAVYYCAAEKRFRKYDNWGQGTQVTVSS | high polyreactivity |
| QVQLVDSGGGLVQAGGSLRLSCAASGSTIPIYAMVWYRQAPGKERELVARITWSGGSTYYADSVKGRFTISRDNAKNTVYLQMNSLKPEDTAVYYCAAVVITTPYDRYYYWGQGTQVTVSS | high polyreactivity |
| QVQLVESGGGLVQAGGSLRLSCASSGSILVHYAMGRYRQAPGKERELFAAISRGGSTNYADSVKGRFTISRDNAKNTVYLQMNSLKPEDTAVYFCAARHGQSWQWLEYDYWGHGTQVTVSS | low polyreactivity |
| QVQLVESGGGLVQAGGSLRLSCASSGYTLRPNGKGWYRQAPGKERELVAAISSGGSTYYADSVKGRFTISRDNAKNTVYLQMNSLKPEDTAVYYCAAEYWYDYWGQGTQVTVSS | low polyreactivity |
| QVQLGESGGGLVQAGGSLRLSCAASGFIFPIYAMGWYIKSPVTERELVAVISGSGGSTYYADSVKGRFTISRDNAKNTVYLLMNSLKPEDTAVYYCAALGRNVAVYKGGYWGQGNQVTVSS | low polyreactivity |
| QVQLVESAGGLVQAGGSLRLSCAASGRIYGIYAMGWYRQAPGKERELVASITDGTITNYADSVKGRFTISRDNAKNTVYLQKNSLKPEDTAVYYCAAGTQAHAYVVRPIEMDYWGQGTQVTVSS | low polyreactivity |
| HDQRVESGGGLVQAGGSLRLSCAASGITFASYAMGWYRQAPGKDRELVAAISWGGSRTYYADSVKGRFTISRDTAKISVYLQMNSLKPEDTAVYYCNAHTRYGPDYSYYYWGQGTQVTVSS | high polyreactivity |
| QVQLVESGGGLVQAGGSLRLSCAASGSIFPLYDMGWSRQATGKQSELVASITSGDTTNYADSVKGRFTISRDNAKNTVYLQMISLNAEDTAVYYCATDTPTDRYAAYPNDQYYYWGQGTQVTVSS | low polyreactivity |
| QVQLQESGGGLVQAGGTITLGYEMGWYRQAPGKEREFVAGIDTGAITYYADSVKGRFTNSRDNAKNTVYLQMNSLKPEDTAVYYCAAIQTHTYAHSYWGQGTQVTVSS | high polyreactivity |
| QVQLVESGGGLVQAGGSLRLSCAASGRIFSRYVMGWYRQAPGKERELVAAITSSGGRTYYADSVKGRFTISRDNAKNTVYLQMNSLNPEDTAVYYCNNAPWWRTSSDYEYWGQGTQVTVSS | high polyreactivity |
| QVQLVESGGGLVQAGGSLRLSCAASGNTLGYNAAMGWYRQAPGKERELVAAITENGGSTYYADSVKGRFTISRDNAKNTVYLQMNSLKPEDTAVYYCATAPYYYRGAYGFEYWGQGTQVTVSS | low polyreactivity |
| QVQLVESGGGLVQAGGSLRLSCAASGRTFYPYAMGWYRQAPGKERELVARISASGGSTYYADSVKGRFTISRDNAKNTVYLQMNSLKPEDTAVYYCARESFWRSLMDYWGQGTQVTVSS | high polyreactivity |
| QVQLVESGGGLVQAGGSLRLSCAASGRIFRHNPMGWYRQAPGKERELVAAITSRGGTYYADSVKGRFTISRDNAKNTVYFQMNSVKPEDTAVYYCAADRPIYPYPGKGFRYDYWGQGTQVTVSS | low polyreactivity |
